Data on two molecules can be found in PMC5575297, “Interaction of lipopolysaccharides at intermolecular sites of the periplasmic Lpt transport assembly” (Scientific Reports, 2017).

Sequences and labels used below:
B1: LptC construct lacking the 23 residues long N-terminal transmembrane domain (domain or fragment, E. coli, UniProt P0ADV9 24-191, looked up)
chain: MAEKDDTAQVVVNNNDPTYKSEHTDTLVYNPEGALSYRLIAQHVEYYSDQAVSWFTQPVLTTFDKDKIPTWSVKADKAKLTNDRMLYLYGHVEVNALVPDSQLRRITTDNAQINLVTQDVTSEDLVTLYGTTFNSSGLKMRGNLRSKNAELIEKVRTSYEIQNKQTQP
notes: LptC, E. coli, lacking the first 23 residues (transmembrane domain); For NMR the protein was isotope-labelled (2H, 13C, 15N, or AILV methyl-labelled) or unlabelled; also called LptC dimer; source: E. coli M15 [prep4], pQESH plasmid, purified (HiTrap, S75 SEC)
B2: LptAm (monomeric E. coli LptA mutant, LptA Δ160-185) (domain or fragment, UniProt P0ADV1 28-159, looked up)
chain: VTGDTDQPIHIESDQQSLDMQGNVVTFTGNVIVTQGTIKINADKVVVTRPGGEQGKEVIDGYGKPATFYQMQDNGKPVEGHASQMHYELAKDFVVLTGNAYLQQVDSNIKGDKITYLVKEQKMQAFSDKGKR
notes: LptA, E. coli, residues 28-159; lacks the last C-terminal β-strand (Δ160-185); For NMR the protein was isotope-labelled (2H, 13C, 15N) or unlabelled; the purified protein is 28-159; also called monomeric LptA; C-terminally truncated LptA; source: E. coli BL21(DE3), pET21b, purified (HiTrap, S75 SEC)

The target of experiment [1] is B2. The experiment in a line: SEC-MALS; 40 µl injected on Superdex S200 (10/300GL) in buffer B (50 mM sodium phosphate, 150 mM NaCl, pH 8) at 25 °C; proteins alone and LptC-LptAm mixtures (also with a two-times molar excess of LptAm); protein conjugate two-component analysis for the complex. The conditions noted are these: both partners purified. Background: In gel filtration, larger molecules generally elute earlier.

The target in experiment [2] is T1, LptC construct lacking the 23 residues long N-terminal transmembrane domain (E. coli), P0ADV9.
T1 chain: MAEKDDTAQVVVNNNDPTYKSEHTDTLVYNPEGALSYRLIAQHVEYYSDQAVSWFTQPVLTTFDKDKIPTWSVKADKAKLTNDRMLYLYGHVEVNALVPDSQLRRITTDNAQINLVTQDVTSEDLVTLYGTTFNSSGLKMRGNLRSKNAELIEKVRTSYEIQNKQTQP
The experiment in a line: SAXS; beamline BM29 (ESRF), 20 °C, NMR buffer with 0.5% w/v sucrose; LptAm 1.6 and 2.4 mg/ml, LptC 1, 2 and 3 mg/ml, LptAm:LptC 1:1 molar ratio at 3.6 and 5.4 mg/ml; extrapolated to zero dilution. As to conditions: remark: other sources report otherwise.

Experiment [3] addresses B2. The experiment in a line: NMR titration; isotope-labelled LptC or LptAm with the unlabelled partner (1.2 molar equivalents); 2D BEST-TROSY / methyl spectra; 35 °C, buffer B with 5% D2O; submillimolar concentrations. The conditions noted are these: both partners purified.
In experiment [4] the target is T1, LptC construct lacking the 23 residues …. The experiment in a line: SEC-MALS; 40 µl injected on Superdex S200 (10/300GL) in buffer B (50 mM sodium phosphate, 150 mM NaCl, pH 8) at 25 °C; proteins alone and LptC-LptAm mixtures (also with a two-times molar excess of LptAm); protein conjugate two-component analysis for the complex. The conditions noted are these: remark: other sources report otherwise.

Experiment [5] concerns the target B1. The experiment in a line: SAXS; beamline BM29 (ESRF), 20 °C, NMR buffer with 0.5% w/v sucrose; LptAm 1.6 and 2.4 mg/ml, LptC 1, 2 and 3 mg/ml, LptAm:LptC 1:1 molar ratio at 3.6 and 5.4 mg/ml; extrapolated to zero dilution. The conditions noted are these: both partners purified.

Regarding B1, the “stoichiometry N” value is 2 LptC:LptAm (2:1) in experiment [1], 2 in experiment [2], ~1 LptC:LptAm molar ratio in experiment [3] and 2 in experiment [4].

In the case of B2, the binding result in experiment [5] is “binds”.

The term stoichiometry N denotes a count of units in the complex or per binding partner.
